Test results as given in patent US20250341517A1 (published 2025).
Ends that are not written are not given here. FAM = carboxyfluorescein (FAM) fluorescent label

T1: C-reactive protein (UniProt P02741 19-224)
T1 construct: also called CRP
T1 sequence (looked up): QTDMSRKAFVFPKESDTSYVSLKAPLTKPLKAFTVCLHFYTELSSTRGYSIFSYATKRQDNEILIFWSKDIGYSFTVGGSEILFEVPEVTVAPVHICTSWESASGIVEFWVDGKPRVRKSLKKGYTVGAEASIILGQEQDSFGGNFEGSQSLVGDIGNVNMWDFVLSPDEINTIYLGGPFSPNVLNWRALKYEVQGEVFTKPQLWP

B1: L2 peptide (peptide)
peptide: {FAM}-VYYCFQGSHVPFTK
notes: Synthetic 14-mer homologous to the FR3 or FR4 region of the light chain; also called L2 switching peptide; second peptide compound L2
B2: H2 peptide (peptide)
peptide: VYYCAREPTGTGIYFDVWGK
modifications: not fully specified (N-terminus)
notes: Synthetic 20-mer homologous to the FR3 or FR4 region of the heavy chain; The label differs between experiments; also called H2 switching peptide; fourth peptide compound H2

Assays:
H2 peptide = target: B2; assay: FRET on microplate: FAM-L1 immobilised, TAMRA-H2 incubated
Anti-CRP antibody(r) = target: T2, Anti-CRP antibody(r); assay: labelled peptide on antibody immobilised on microplate; antigen CRP
T2 construct: also called rabbit IgG (CRP)

Anti-HRP antibody(r) [1] = target: T3, Anti-HRP antibody(r); assay: labelled peptide on antibody immobilised on microplate; antigen HRP
T3 construct: Rabbit IgG, immobilised on a microplate; also called rabbit anti-HRP antibodies; anti-HRP antibody from a rabbit

Anti-hCG antibody(m) = target: T4, Anti-hCG antibody(m); assay: labelled peptide on antibody immobilised on microplate; antigen hCG
T4 construct: also called mouse IgG (hCG)

Anti-HRP antibody(r) [2] = target: T3, Anti-HRP antibody(r); assay: labelled peptide on immobilised rabbit anti-HRP antibody, papain cleavage
Anti-HBsAg antibody(g) = target: T5, Anti-HBsAg antibody(g); assay: labelled peptide on antibody immobilised on microplate; antigen HBsAg
T5 construct: also called anti-HBsAg antibodies from goats; goat IgG (HBsAg)

[3] = target: T6, anti-Inf-A binding antibody; assay: SPR biosensor, anti-Inf-A antibody immobilised on Au substrate, BSA blocked
T6 construct: also called anti-Inf-A antibody; anti-inf A antibody
Source text: Referring to FIG. 17A, anti-Inf-A and anti-Inf-B binding antibodies were immobilized on an Au substrate using an SPR biosensor, and the blank surface of the substrate was blocked with a BSA solution to treat Inf-A and Inf-B.

[4] = target: T7, anti-Inf-B binding antibody; assay: SPR biosensor, anti-Inf-B antibody immobilised on Au substrate, BSA blocked
T7 construct: also called anti-Inf-B antibody

C-reactive protein = target: T1, C-reactive protein; assay: labelled peptide on protein immobilised on microplate; fluorescence at bottom
protein-A = protein-A (UniProt P38507 37-477); assay: as above
BSA = target: T8, BSA (UniProt P02769 25-607); assay: as above
T8 construct: also called bovine serum albumin

[5] = target: T6, anti-Inf-A binding antibody; assay: dissociation of labelled peptide from anti-Inf-A antibody on treatment with Inf-A; fluorescence
[6] = target: T7, anti-Inf-B binding antibody; assay: dissociation of labelled peptide from anti-Inf-B antibody on treatment with Inf-B; fluorescence
Anti-HRP antibody(r) [7] = target: T3, Anti-HRP antibody(r); assay: fluorescence in solution against HRP concentration (0.3 to 100 µM); peptide on immobilised rabbit anti-HRP antibody
Source text: In this experiment, an anti-HRP antibody from a rabbit immobilized on a microplate was used as the binding antibody and HRP was used as the antigen.

L2 peptide = target: B1; assay: FRET on microplate: FAM-L2 immobilised, TAMRA-H1 incubated

T8 sequence (P02769 25-607 limits assumed): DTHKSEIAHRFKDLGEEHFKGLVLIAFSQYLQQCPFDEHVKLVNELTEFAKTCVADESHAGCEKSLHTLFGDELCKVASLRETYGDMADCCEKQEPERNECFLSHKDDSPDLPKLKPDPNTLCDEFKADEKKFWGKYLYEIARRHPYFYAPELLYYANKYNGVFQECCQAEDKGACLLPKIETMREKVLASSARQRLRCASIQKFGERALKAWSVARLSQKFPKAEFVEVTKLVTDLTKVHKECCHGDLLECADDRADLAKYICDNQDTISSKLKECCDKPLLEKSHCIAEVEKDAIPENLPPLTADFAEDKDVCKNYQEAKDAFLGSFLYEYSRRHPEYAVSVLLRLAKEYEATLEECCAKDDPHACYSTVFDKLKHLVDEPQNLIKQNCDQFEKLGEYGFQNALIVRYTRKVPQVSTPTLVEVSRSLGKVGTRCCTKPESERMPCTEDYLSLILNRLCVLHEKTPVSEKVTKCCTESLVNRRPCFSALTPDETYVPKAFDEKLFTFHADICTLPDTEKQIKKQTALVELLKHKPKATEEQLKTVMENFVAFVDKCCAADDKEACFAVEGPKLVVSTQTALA

| Binder | change (%) of fluorescence at bottom (B) of microplate (Anti-CRP antibody(r)) | change (%) of fluorescence in solution (S) (Anti-CRP antibody(r)) | fluorescence intensity at bottom (B) of microplate after antigen binding (Anti-CRP antibody(r)) | fluorescence intensity at bottom (B) of microplate before antigen binding (Anti-CRP antibody(r)) | fluorescence intensity in solution (S) after antigen binding (Anti-CRP antibody(r)) | fluorescence intensity in solution (S) before antigen binding (Anti-CRP antibody(r)) | change (%) of fluorescence at bottom (B) of microplate (Anti-HRP antibody(r) [1]) | change (%) of fluorescence in solution (S) (Anti-HRP antibody(r) [1]) | fluorescence intensity at bottom (B) of microplate after antigen binding (Anti-HRP antibody(r) [1]) | fluorescence intensity at bottom (B) of microplate before antigen binding (Anti-HRP antibody(r) [1]) | fluorescence intensity in solution (S) after antigen binding (Anti-HRP antibody(r) [1]) | fluorescence intensity in solution (S) before antigen binding (Anti-HRP antibody(r) [1]) | change (%) of fluorescence at bottom (B) of microplate (Anti-hCG antibody(m)) | change (%) of fluorescence in solution (S) (Anti-hCG antibody(m)) | fluorescence intensity at bottom (B) of microplate after antigen binding (Anti-hCG antibody(m)) | fluorescence intensity at bottom (B) of microplate before antigen binding (Anti-hCG antibody(m)) | fluorescence intensity in solution (S) after antigen binding (Anti-hCG antibody(m)) | fluorescence intensity in solution (S) before antigen binding (Anti-hCG antibody(m)) | decrease of fluorescence intensity at the bottom of the microplate after papain treatment (Anti-HRP antibody(r) [2]) | increase of fluorescence intensity in the solution after papain treatment (Anti-HRP antibody(r) [2]) | also measured |
| --- | --- | --- | --- | --- | --- | --- | --- | --- | --- | --- | --- | --- | --- | --- | --- | --- | --- | --- | --- | --- | --- |
| TYLEWYPQKPGQSPKLLIYK (not fully specified (N-terminus), Synthetic 20-mer homologous to the FR2 region of the light chain; The label differs between experiments; also called L1 switching peptide; first peptide compound L1) [L1 peptide] | -48.6% | 778% | 3460 | 6720 | 6500 | 741 | -87.3% | 357% | 1990 | 15600 | 12300 | 2690 | -61.6% | 187% | 1780 | 4630 | 3580 | 1250 | 84.8% | 1030% | binding result (H2 peptide): binds; change (%) of fluorescence at bottom (B) of microplate (Anti-HBsAg antibody(g)): -51.3%; change (%) of fluorescence in solution (S) (Anti-HBsAg antibody(g)): 638%; fluorescence intensity at bottom (B) of microplate after antigen binding (Anti-HBsAg antibody(g)): 5390; fluorescence intensity at bottom (B) of microplate before antigen binding (Anti-HBsAg antibody(g)): 11100; fluorescence intensity in solution (S) after antigen binding (Anti-HBsAg antibody(g)): 20500; fluorescence intensity in solution (S) before antigen binding (Anti-HBsAg antibody(g)): 2780; Kd [3]: 14 µM; Kd [4]: 14 µM; binding result (C-reactive protein): no binding; binding result (protein-A): no binding; binding result (BSA): no binding; relative change in fluorescence signal [5]: 176%; relative change in fluorescence signal [6]: 180%; Kd (Anti-HRP antibody(r) [7]): 3.29 µM |
| B1 | -44.9% | 883% | 11200 | 20400 | 32200 | 3270 | -74.5% | 597% | 3210 | 12600 | 16100 | 2320 | -90.7% | 456% | 3070 | 33200 | 9400 | 1690 | 72.5% | 2450% | change (%) of fluorescence at bottom (B) of microplate (Anti-HBsAg antibody(g)): -64.8%; change (%) of fluorescence in solution (S) (Anti-HBsAg antibody(g)): 574%; fluorescence intensity at bottom (B) of microplate after antigen binding (Anti-HBsAg antibody(g)): 9860; fluorescence intensity at bottom (B) of microplate before antigen binding (Anti-HBsAg antibody(g)): 28000; fluorescence intensity in solution (S) after antigen binding (Anti-HBsAg antibody(g)): 15400; fluorescence intensity in solution (S) before antigen binding (Anti-HBsAg antibody(g)): 2280; binding result (C-reactive protein): no binding; binding result (protein-A): no binding; binding result (BSA): no binding; relative change in fluorescence signal [5]: 225%; relative change in fluorescence signal [6]: 151%; Kd (Anti-HRP antibody(r) [7]): 1.48 µM |
| SYWIHWVKQRPGQGLEWIGE (not fully specified (N-terminus), Synthetic 20-mer homologous to the FR2 region of the heavy chain; The fluorescent label differs between experiments; also called H1 switching peptide; third peptide compound H1) [H1 peptide] | -26.8% | 152% | 3600 | 4910 | 5660 | 2240 | -87.7% | 746% | 1450 | 11800 | 22000 | 2600 | -65.6% | 206% | 1940 | 5650 | 3920 | 1280 | 84.3% | 2180% | binding result (L2 peptide): binds; change (%) of fluorescence at bottom (B) of microplate (Anti-HBsAg antibody(g)): -58.9%; change (%) of fluorescence in solution (S) (Anti-HBsAg antibody(g)): 410%; fluorescence intensity at bottom (B) of microplate after antigen binding (Anti-HBsAg antibody(g)): 4620; fluorescence intensity at bottom (B) of microplate before antigen binding (Anti-HBsAg antibody(g)): 11200; fluorescence intensity in solution (S) after antigen binding (Anti-HBsAg antibody(g)): 11500; fluorescence intensity in solution (S) before antigen binding (Anti-HBsAg antibody(g)): 2240; binding result (C-reactive protein): no binding; binding result (protein-A): no binding; binding result (BSA): no binding; relative change in fluorescence signal [5]: 130%; relative change in fluorescence signal [6]: 145%; Kd (Anti-HRP antibody(r) [7]): 1.65 µM |
| B2 | -39.5% | 677% | 22200 | 22200 | 16300 | 2100 | -85.2% | 698% | 1810 | 122000 | 18100 | 2270 | -88.5% | 416% | 23300 | 23300 | 8540 | 1650 | 58.7% | 2360% | change (%) of fluorescence at bottom (B) of microplate (Anti-HBsAg antibody(g)): -36.1%; change (%) of fluorescence in solution (S) (Anti-HBsAg antibody(g)): 412%; fluorescence intensity at bottom (B) of microplate after antigen binding (Anti-HBsAg antibody(g)): 18800; fluorescence intensity at bottom (B) of microplate before antigen binding (Anti-HBsAg antibody(g)): 29400; fluorescence intensity in solution (S) after antigen binding (Anti-HBsAg antibody(g)): 9140; fluorescence intensity in solution (S) before antigen binding (Anti-HBsAg antibody(g)): 1780; Kd [3]: 37 µM; Kd [4]: 56 µM; binding result (C-reactive protein): no binding; binding result (protein-A): no binding; binding result (BSA): no binding; relative change in fluorescence signal [5]: 352%; relative change in fluorescence signal [6]: 199%; Kd (Anti-HRP antibody(r) [7]): 3.11 µM |
